# Laboratory results reported in US20230226096A1 (Orna Therapeutics, Inc., priority 2020, published 2023).
# Test system: HEK293 cells
# Assay type: cell-based, human
# Details: luminescence from secreted Gluc in supernatant 24 hours after transfection of HEK293 cells; circular RNA encoding Gluc with the named IRES (UTR truncated to 675 nt)
row,Molecule,Expression
1,Falcon picornavirus (nucleic acid) DNA: CGCTTGGAATAAGTTGAGAGGAATTATGCATGCTAGTTGTGTTTGTTTACAACTAATTGTTCTAATCCAAGTGAAGCTCTTCGCTTGGGGCGGCACGACACTTGCCGTAATTCTTCTACCGTCCCTCCACACCTTGTGGATGAAGGGCCGGATGTGTGGCCTCTGGCTAACCCCTCTCTCTGGGGTGATGCTACTGGATGTTTTACTCCTAGACCAAATCACATGAACTCCTCTTGATCCACTTCGGTGGGGCTATGAGCCTGCGGATTAATAGCTGGCGACAGCTACCCCAGGGGCCAAAAGCCACGGTGTTAGCAGCACCCTCATAGTCTGATGCCCAAGGGCTGATGTTGGGAGCTAGTAGTGTGTGTCTGGCCTATGTTTAGGACTTCTGGCCAAGCGCAGAGGAGTGGGGCTGAAGGATGCCCAGAAGGTACCCGTAGGTAACCTTAAGAGACTATGGATCTGATCTGGGGCCCCCTCACGTGGCTTTACCACGTGTTGGGGGTTAAAAAACGTCTAGGCCCCACCAGCCCACGGGAGTGGGCTTTCCCTTAAAAAGCCCAACAATATTTATGGTGACAATTCACTGTTTCTTCTTTGCAATTTTTGTATTCTTGGACTCCTTATTTTTTGTTTGCTTGATTTTAGTGGACATTCAGATTCAAATACAAA,3.08E+06
2,Equine rhinitis B virus 1 (nucleic acid) DNA: CGACAGGCACAGGTCGCTCCGAGTTCTAGTAGTGTGGGAACTTGTTACTACTGATGAAACGAGGTAGTGACACTCAGTACCTGCGAACGAGGTCGGGGCCCTCCCTTCTTCCTTCACCCAACTTTCACTTTTCGTTCCACTTTAGCAGGGGTCTTCTTTCTATCCCCCTGGCGGCATTGGAACTAGCCGTCGCGTCTTAACGCGCAGCCCTGAAGGCCCCACACCTTGTGGATCTTGCCGTGGGTATGTTTCTGGCATGTGTTTCTCAAGCCTGCAACCGAAGCCGAACAGCCACATGAACAGTTTGAGCGTGGTAGCGCTGTGTGAGTTGGCGGTGGATCCCCCTCGTGGTAACACGAGCCCCCGTGGCCAAAAGCCCAGTGTTTACAGCACCTCTCACATCCAGGACGACCCCATCCTGGCGCTCACTCTTAGTAGTATGGCTTAGTACGCATTAGGTGGTAAGCCGAGCTCTCCCTCGGCCTTGTTCTGAATGCACACATGTCTAGGGGCTAAGGATGTCCTACAGGTACCCGCACGTAACCTTCAGAGAGTGCGGATCTGAGTAGGAGACCGTGGTGCACTGCTTTACAGATGCAGCCCGGTTTAAAAAGCGTCTATGCCCCTACAGGGTAGCGGTGGGCCGCGCCCTTTCCTTTTAAAACTACTTGTTCT,1.01E+05
3,Equine arteritis virus (nucleic acid) DNA: GCTCGAAGTGTGTATGGTGCCATATACGGCTCACCACCATATACACTGCAAGAATTACTATTCTTGTGGGCCCCTCTCGGTAAATCCTAGAGGGCTTTCCTCTCGTTATTGCGAGATTCGTCGTTAGATAACGGCAAGTTCCCTTTCTTACTATCCTATTTTCATCTTGTGGCTTGACGGGTCACTGCCATCGTCGTCGATCTCTATCAACTACCCTTGCGACT,1.89E+05
4,"Dolphin morbillivirus (nucleic acid, listed as Morbillivirus sp., chemistry not fully specified; the letters are possibly those of the target site) DNA: ACCAGACAAAGCTGGCTAGGGGTAGAATAACAGATAATGATAAATTATCATACTTAGGATTAATGATCCTATCAATTGGCACAGGATTTGGATAAAGGTTCACAGTC",1.22E+05
5,"Equine rhinitis A virus (nucleic acid, Equine rhinitis A virus) DNA: AAGGGTTACTGCTCGTAATGAGAGCACATGACATTTTGCCAAGATTTCCTGGCAATTGTCACGGGAGAGAGGAGCCCGTTCTCGGGCACTTTTCTCTCAAACAATGTTGGCGCGCCTCGGCGCGCCCCCCCTTTTTCAGCCCCCTGTCATTGACTGGTCGAAGGCGCTCGCAATAAGACTGGTCGTTGCTTGGCTTTTCTATTGTTTCAGGCTTTAGCGCGCCCTTGCGCGGCGGGCCGTCAAGCCCGTGTGCTGTACAGCACCAGGTAACCGGACAGCGGCTTGCTGGATTTTCCCGGTGCCATTGCTCTGGATGGTGTCACCAAGCTGGCAGATGCGGAGTGAACCTTACGAAGCGACACACCTGTGGTAGCGCTGCCCAGAAGGGAGCGGAGCTCCCCCGCCGCGAGGCGGTCCTCTCTGGCCAAAAGCCCAGCGTTAATAGCGCCTTCTGGGATGCAGGAACCCCACCTGCCAGGTGTGAAGTGGACTAAGTGGATCTCCAATTTGGCCTGTTCTGAACTACACCATCTACTGCTGTGAAGAATGTCCTGAAGGCAAGCTGGTTACAGCCCTGATCAGGAGCCCCGCTCGTGACTCTCGATCGACGCGGGGTCAAAAACTGTCTAAGCAGCAGCAGAAACGCGGGAGCGTTTCTTTTTCCTCATTTGTTTC",3.73E+05
6,"Enterovirus AN12 (nucleic acid, listed as Enterovirus sp.) DNA: TACCGCTGCACCAGTGAGCTGGTACGCTAGTACCTTCGCACGGAGTAGATGGCATCCCCCACCCCGTAACTTAGAAGCAAAGTACACATCTGGCCAATAGTGGCGCTGCATCCAGCCGCGCAACGGTCAAGCACTTCTGTTTCCCCGGTCCGCAAGGGTCGTTATCCGCCCAGTCCACTACGGAAAGCCTACTAACCATTGAAGCTATCGAGAGGTTGCGCTCGGCCACGACCCCGGTGGTAGCTCTGAGTGATGGGGCTCGCAAACACCCCCGTGGTAACACGGATGCTTGCCCGCGCGTGCACTCGGGTTCAGCCTATTGGTTGTTCACCTCAACATAGTGTAAATGGCCAAGAGCCTACTGTGCTGGATTGGTTTTCCTCCGGAGCCGTGAATGCTGCTAATCCCAACCTCCGAGCGTGTGCGCACAATCCAGTGTTGCTACGTCGTAACGCGTAAGTTGGAGGCGGAACAGACTACTTTCGGTACTCCGTGTTTCTTTTGTTTTATTTTGAATTTTATGGTGACAATTGCTGAGATTTGCGAATTAGCGACTCTACCGCTGAACATTGCCCTGTACTACCTAATCGCATTTCACAAAACCTCAGAGATACCAAGCTCTTACATTGATCTGCTTGTTTTCCTGAATCTCAAATATAAATTGGAACAAGCAAA",3.87E+06
7,"Grapevine associated narnavirus-1 (nucleic acid, listed as Narnavirus sp.) DNA: GCCCGGGGGGTGCAGTCCTGTGAAAGGGTCTGCACCATACTATATATGTATATGATTACATCCCAAAAGGCGACTTCGTTCAGGTTTTAAATCTGACGTAGGTCCAGTAAATAAGCATGTCAAAACATGTAAGTTTATCCTGTAATCTACTCTCATAAGATGAGATAAGATGATATTGCAGTTCCCATGTAAATAAATCCATTATGAATTCATTCATATAAGGTAGAAGTGGTAACTATGGTTGAAACATTAATATAAAACGGTCATTTTGCATGAACGTCATTAAGGAACTGGCATACCAATGTCTATTTAGTGACTATGATATTTAGAGTATCCCTTATATTAATTAACAATTATTCCTTTTAGCATATCATCCGACAACAAATTTTAAAAGAAGAAATATTACTCATTAAAA",1.30E+05
8,"Guereza hepacivirus (nucleic acid, listed as Hepacivirus sp.) DNA: CACTCAATACTACACTCCGCATTTGGGGAGAAGCGCTGGCGTTCGCGGAACCGCGTTAACCATACGCGTAGTACGAGTGCGACAGACCCCGGTGCTACTGGTGGTAGCGAGACACGAGCCGAAGTCTGTGGGGGGAACTCCACTTAGAGGGCATGCCCGGGCGTAGGCTTCTGAGTTGGGATGGGCCCCAACTTGGCCCCTGAGTGGGGGGGTGTTACGACCTGATAGGGTGCGGGCTGGCGCCTACCACTTTCCAGTCGTACATGAGTC",1.38E+05
9,"Enterovirus sp. isolate CPML (nucleic acid, listed as Enterovirus sp.) DNA: ACTCTGGTATCACGGTACCTTTGCACGCCTATTTTATACCCCTTCCCCATCGTAACTTAGAAGCAACAAACAAACTGCCCAATAGCAGCACAACACCCAGTTGTGTTAGGGGCAAGCACTTCTGTTTCCCCGGAAGGGTCTGACGGTATGCTGTACCCACGGCAGAAGTATGACCTACCGTTAACCGGCCATGTACTTCGAGAAGCCTAGTACCATTATGAAGGTTGATTGATGTTACGCTCCCCAGCAACCCCAGCTGGTAGTTCTGGTCGATGAGTCTCGGCATTCCCCACGGGCGACCGTGGCCGAGGCTGCGTTGGCGGCCAGCCTACACCATACGGTGTAGGACGTCAAGATACTGACATGGTGTGAAGAGCCTATTGAGCTACGTGGTAGTCCTCCGGCCCCTGAATGCGGCTAATCCTAACTCCGGAGCATCCGCCAGTAAGCCCACTGGAAGGGTGTCGTAATGCGAAAGTCTGGAGCGGAACCGACTACTTTGGGTGTCCGTGTTTCCTGTTTTACTTATTGTTTGGCTGCTTATGGTGACAACTTATAGTTATCATCATAAGCTACTTGGTCTTGCCAACCGGAGAATTATTTGGTTATTTGTTGGTTTCATAAACCTACAGTCGTATTTTCCTGTCTTATTAATTGTTCTCAAAATTAACAACA",6.83E+07
10,Dianke virus (nucleic acid) DNA: TGTTTTCAACCATAATACTACTACTACAAGTATAAAACCCCGTCCGTCTGTCGGAGACGCTAAACTCTGACCACCAATCTAGCCACATCAGTTGCTTAAAGAACCTCTTGAGACACTCTCCCACTTAACATCTTTTAGGAATCTTCGATGCTACAACAACTTGGCTAGTGAACAATAAATCCGTACAATTCACAGTTGTAAGAGGCCATAGGTCCAGACTTTGAAAGGTTTGTTTCTATTGTTACAAATACTTAGATTAACAGAGGCTATTTAATAGTGCTCATCACGTTAACAGAGTAACCTTGTGCAATAGTATGAGCTTGTTGTAAAACGTCTTGATACGACACC,1.35E+05
11,Megirivirus A LY (nucleic acid) DNA: TTCGGGACACTGGATGGGCGACTTGGTGGGGCTGCCACTCTATCTTGACCTTTCGTTACTGACTTTCGGATCTCTGACTCCTCCTTGTCTCTTGCGTTTGGTCCACGGACGGACTAATTGGAATGTTTACTGGCTAAGCCTCGTTCTGAAATACCCTAGCCAATGGGTTGTAGTAGGATCCTGGTGTTTCCATTAAACCTCTTCCGACCATAGTAGCTAGAGTTATGGCTGTGTAGGATGTGGGTAAGACCGCTTTTTGCGTATCTCCCACAAGACACCGGATTATGGATGTGTCCGCTGGATAAGGCTCGAAACCTCCCAACTGAAGGTGGTGCTGAAATATTGCAAGCCTAGGTTGTGTAGAGGCAAGTAGATGCCTGCCGCGACATTCGTCTTCCGCCCTTTTGGGTTAGTAGTGTACCTACATGGACGTGGGGCTGGGAATCCCCACCTTGCATAACACTGGTTGATAGACCTGCGGCTGGTCAAGTTACTATGGTATAACCAGTTGAAATGGCT,1.80E+06
